Test results from patent publication US20220088180A1.

B1: … (SEQ ID NO: 12) (peptide)
peptide: ELPDEFVVV
modifications: not checked
B2: … (SEQ ID NO: 36) (peptide)
peptide: KNIDGYFKIY
modifications: not checked
B3: … (SEQ ID NO: 17) (peptide)
peptide: FASEAARVV
modifications: not checked
B4: … (SEQ ID NO: 13) (peptide)
peptide: KAFQLTPIAV
modifications: not checked
B5: … (SEQ ID NO: 31) (peptide)
peptide: IRQEEVQEL
modifications: not checked
B6: … (SEQ ID NO: 15) (peptide)
peptide: EIKESVQTF
modifications: not checked
B7: … (SEQ ID NO: 4) (peptide)
peptide: MLLGSMLYM
modifications: not checked
B8: … (SEQ ID NO: 42) (peptide)
peptide: APRITFGGP
modifications: not checked
B9: … (SEQ ID NO: 23) (peptide)
peptide: FGDDTVIEV
modifications: not checked
B10: … (SEQ ID NO: 29) (peptide)
peptide: KRVDWTIEY
modifications: not checked
B11: … (SEQ ID NO: 24) (peptide)
peptide: YLNSTNVTI
modifications: not checked
B12: … (SEQ ID NO: 27) (peptide)
peptide: SEFSSLPSY
modifications: not checked
B13: … (SEQ ID NO: 6) (peptide)
peptide: GPMVLRGLIT
modifications: not checked
B14: … (SEQ ID NO: 7) (peptide)
peptide: SLEDKAFQL
modifications: not checked

target: HLA-B*44:02 (human); assay: radioligand competition, purified MHC; settings: not given

Row | Binder | IC50 [µM]
1 | B1 | > 70
2 | B2 | > 70
3 | B3 | > 70
4 | B4 | > 70
5 | B5 | > 70
6 | B6 | 37.2
7 | B7 | 18.9
8 | B8 | > 70

same assay, conditions: remark: other sources report otherwise

Row | Binder | IC50 [µM]
9 | B9 | > 70
10 | B10 | > 70

target: HLA-B*51:01 (human); assay: radioligand competition, purified MHC; settings: not given

Row | Binder | IC50 [µM]
11 | B11 | 3.62
12 | B1 | > 70
13 | B2 | > 70
14 | B3 | 0.207
15 | B4 | 38.7
16 | B5 | > 70
17 | B6 | > 70
18 | B7 | 7.87
19 | B12 | > 70
20 | B8 | > 70

same assay, conditions: remark: other sources report otherwise

Row | Binder | IC50 [µM]
21 | B9 | 45.7
22 | B10 | 22.7

target: HLA-B*07:02 (human); assay: radioligand competition, purified MHC; settings: not given

Row | Binder | IC50 [µM]
23 | B9 | > 70
24 | B10 | > 70
25 | B11 | 7.93
26 | B1 | > 70
27 | B2 | > 70
28 | B3 | 8.55
29 | B4 | 8.6
30 | B5 | > 70
31 | B6 | > 70
32 | B12 | > 70
33 | B8 | 0.059

target: HLA-A*26:01 (human); assay: radioligand competition, purified MHC; settings: not given

Row | Binder | IC50 [µM]
34 | B13 | 0.884
35 | B1 | 6.86
36 | B2 | > 70
37 | B3 | 0.734
38 | B4 | > 70
39 | B5 | > 70
40 | B6 | 0.0078
41 | B7 | 45.5
42 | B12 | 0.875
43 | B8 | > 70

same assay, conditions: remark: other sources report otherwise

Row | Binder | IC50 [µM]
44 | B9 | > 70
45 | B10 | > 70

target: HLA-B*15:01 (human); assay: radioligand competition, purified MHC; settings: not given

Row | Binder | IC50 [µM]
46 | B13 | 8.55
47 | B14 | 1.58
48 | B11 | 0.0012
49 | B1 | > 70
50 | B2 | 1.45
51 | B3 | 2.55
52 | B4 | 1.2
53 | B5 | > 70
54 | B6 | 4.93
55 | B7 | 0.0011
56 | B12 | 0.0069
57 | B8 | > 70

same assay, conditions: remark: other sources report otherwise

Row | Binder | IC50 [µM]
58 | B9 | 2.38
59 | B10 | 0.356

target: HLA-A*02:01 (human); assay: radioligand competition, purified MHC; settings: not given

Row | Binder | IC50 [µM]
60 | B13 | 2
61 | B14 | 0.02
62 | B11 | 0.012
63 | B1 | 0.46
64 | B2 | 11.8
65 | B3 | 0.495
66 | B4 | 0.0078
67 | B5 | > 70
68 | B6 | > 70
69 | B7 | < 0.0005
70 | B12 | > 70
71 | B8 | 0.893

same assay, conditions: remark: other sources report otherwise

Row | Binder | IC50 [µM]
72 | B10 | > 70

target: HLA-A*01:01 (human); assay: radioligand competition, purified MHC; settings: not given

Row | Binder | IC50 [µM]
73 | B1 | > 70
74 | B2 | > 70
75 | B3 | > 70
76 | B4 | > 70
77 | B5 | > 70
78 | B6 | > 70
79 | B12 | 39.8
80 | B8 | > 70

same assay, conditions: remark: other sources report otherwise

Row | Binder | IC50 [µM]
81 | B9 | > 70
82 | B10 | > 70

target: HLA-B*18:01 (human); assay: radioligand competition, purified MHC; settings: not given

Row | Binder | IC50 [µM]
83 | B1 | > 70
84 | B2 | > 70
85 | B3 | 49.5
86 | B4 | 3.87
87 | B5 | > 70
88 | B6 | > 70
89 | B12 | 0.00037
90 | B8 | > 70

same assay, conditions: remark: other sources report otherwise

Row | Binder | IC50 [µM]
91 | B9 | > 70
92 | B10 | > 70

target: HLA-B*44:03 (human); assay: radioligand competition, purified MHC; settings: not given

Row | Binder | IC50 [µM]
93 | B11 | 49.6
94 | B1 | > 70
95 | B2 | > 70
96 | B3 | > 70
97 | B4 | 16.4
98 | B5 | > 70
99 | B6 | > 70
100 | B8 | > 70

same assay, conditions: remark: other sources report otherwise

Row | Binder | IC50 [µM]
101 | B9 | > 70
102 | B10 | > 70
